Laboratory results taken from patent US20200332271.

Biological target: dSpCas9 ::KQ KQ insertion (Streptococcus pyogenes) (UniProt Q99ZW2)
Test: cell_activity
Details: TGG PAM; half the GFP-positive fraction of SpCas9

UniProt Q99ZW2, sequence (Q99ZW2 whole entry): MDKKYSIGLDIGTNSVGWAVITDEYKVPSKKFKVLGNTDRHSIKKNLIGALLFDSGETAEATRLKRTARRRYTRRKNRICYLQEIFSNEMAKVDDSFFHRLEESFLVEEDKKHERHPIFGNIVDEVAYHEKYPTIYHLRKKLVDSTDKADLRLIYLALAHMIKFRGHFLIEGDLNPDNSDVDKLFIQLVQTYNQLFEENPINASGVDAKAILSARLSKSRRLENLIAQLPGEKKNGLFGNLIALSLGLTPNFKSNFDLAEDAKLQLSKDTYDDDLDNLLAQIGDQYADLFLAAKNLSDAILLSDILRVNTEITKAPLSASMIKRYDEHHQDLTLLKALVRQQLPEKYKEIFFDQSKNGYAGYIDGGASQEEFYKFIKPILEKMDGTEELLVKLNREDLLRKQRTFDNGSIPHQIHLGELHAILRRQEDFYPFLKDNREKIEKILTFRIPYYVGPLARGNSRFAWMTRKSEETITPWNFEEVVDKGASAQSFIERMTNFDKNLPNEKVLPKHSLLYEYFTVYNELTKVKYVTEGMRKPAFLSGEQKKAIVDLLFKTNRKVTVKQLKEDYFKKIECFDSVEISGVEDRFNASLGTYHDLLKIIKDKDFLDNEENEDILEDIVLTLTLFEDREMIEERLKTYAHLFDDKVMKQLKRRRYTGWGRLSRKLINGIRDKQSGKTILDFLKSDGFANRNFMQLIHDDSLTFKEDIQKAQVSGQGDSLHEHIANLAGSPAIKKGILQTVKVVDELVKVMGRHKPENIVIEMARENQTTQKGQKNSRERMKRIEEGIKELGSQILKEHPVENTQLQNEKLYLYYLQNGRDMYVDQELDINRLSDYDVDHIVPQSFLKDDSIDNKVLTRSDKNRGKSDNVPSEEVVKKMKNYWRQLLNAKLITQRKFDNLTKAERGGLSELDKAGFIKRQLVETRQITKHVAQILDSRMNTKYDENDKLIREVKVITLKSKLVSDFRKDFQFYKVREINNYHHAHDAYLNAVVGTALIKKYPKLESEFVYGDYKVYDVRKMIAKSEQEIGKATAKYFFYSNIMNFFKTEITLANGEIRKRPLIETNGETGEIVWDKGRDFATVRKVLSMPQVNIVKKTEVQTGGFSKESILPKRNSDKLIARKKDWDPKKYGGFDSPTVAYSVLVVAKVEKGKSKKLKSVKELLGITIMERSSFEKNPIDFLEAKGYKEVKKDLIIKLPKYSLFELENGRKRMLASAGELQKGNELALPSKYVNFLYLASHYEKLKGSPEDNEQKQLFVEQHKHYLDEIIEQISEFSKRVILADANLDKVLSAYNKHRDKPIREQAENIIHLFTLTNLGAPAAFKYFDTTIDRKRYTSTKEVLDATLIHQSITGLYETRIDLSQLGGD

“CGAAAGGUUUUGCACUCGAC / CGAAAGGTTTTGCACTCGACTGG / CCAGTCGAGTGCAAAACCTTTCG [PAM-SCANR sgRNA spacer ; PAM-SCANR protospacer + TGG PAM]” gave a binding signal (fraction of SpCas9 GFP+ cells) of 0.5.
